Common to all, as to conditions: both partners purified
The target of experiment [1] is T1, HCoV-OC43 S-2P-T4f-3C-His8-Strep2x2 (stabilized spike ectodomain) (HCoV-OC43, strain , UniProt P36334, stabilised).
T1 construct: also called HCoV-OC43-S2P.his; stabilized spike ectodomain from HCoV-OC43; source: 293E cells, purified (Ni-NTA, SEC on superose 6)
Put plainly: BLI. (In BLI a coated tip is dipped into the sample, and binding shifts an interference pattern.)

Experiment [2] concerns the target T2, HCoV-HKU1 S-2P-T4f-3C-His8-Strep2x2 (stabilized spike ectodomain) (HCoV-HKU1, isolate  (isolate …, UniProt Q0ZME7, stabilised)).
T2 construct: also called HCoV-HKU1-S2P.his; stabilized spike ectodomain from HCoV-HKU1; source: 293E cells, purified (Ni-NTA, SEC on superose 6)
Description: BLI.

In experiment [3] the target is T3, synthetic stem helix peptide spanning residues 1149–1167 (SARS-CoV-2, UniProt P0DTC2).
T3 chain: KEELDKYFKNHTSPDVDLG
Put plainly: crystal structure.

B1: CV3-25 IgG (antibody, V domains shown)
VH: QVQLVESGAEVKKPGESLKISCKGSGYTFTRYWIGWVRQMPGKGLEWMGIIYPGDSDTRYSPSFQGHVTISADKSISTAYLQWNSLKASDTAMYYCARLPQYCSNGVCQRWFDPWGQGTLVTVSS
VL: EIVLTQSPSSVSASVGDRVTITCRASQGISSWLAWYQQKPGKAPKLLIYAASSLQSGVPSRFSGSGSGTDFTLTISSLQPEDFATYYCQQGNSFPYTFGQGTNLEIK
notes: also called CV3-25 mAb; source: 293 cells, purified (protein A resin); copies: 2 + 2
Regarding B1, the binding result in experiment [1] and in experiment [2] was “binds” throughout.

B2: CV3-25 Fab (Fab, V domains shown)
VH: B1 VH
VL: B1 VL
notes: also called monovalent Fab
Regarding B2, the binding result in experiment [3] is “binds”.

For the origin of these results see PMC9001700 (Communications Biology, 2022).
